Results reported in patent US20110112172.

Assays:
[1] = target: human SDF-1 alpha (CXCL12) (Homo sapiens) (UniProt P48061); test: SPR; conditions: L-RNA, 37 C
[2] = target: biotinylated human D-SDF-1 (mirror-image CXCL12) (Homo sapiens) (UniProt P48061); test: pulldown; conditions: 37 C
biotinylated human D-SDF-1 (mirror-image CXCL12) (Homo sapiens), sequence (P48061 22-92): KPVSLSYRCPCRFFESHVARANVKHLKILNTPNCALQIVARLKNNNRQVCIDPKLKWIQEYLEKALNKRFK

human SDF-1 alpha (CXCL12) (Homo sapiens), sequence (P48061 22-89): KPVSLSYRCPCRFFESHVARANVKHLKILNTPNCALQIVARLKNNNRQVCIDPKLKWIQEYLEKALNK

## GAGAUAGGGGUUAGGGCUUAAAGUCGGCUGAUUCUC [190-A3-004 Spiegelmer]
[1]
  Kd: 4.7 nM

## GUGCUGCGGGGGUUAGGGCUAGAAGUCGGCCUGCAGCAC [197-B2 Spiegelmer]
[1]
  Kd: 0.9 nM

## AGCGUGGCGAGGUUAGGGCUAGAAGUCGGUCGACACGCU [191-D5-001 Spiegelmer]
[1]; FIG. 21 cited here is labelled 191-D5-007
  Kd: 0.8 nM

## GAGAUAGGGGUUAGGGCUUAAAGUCGGCUGAUUCUC [190-A3-004 aptamer (D)]
[2]; same affinity as 190-A3-001
  Kd: 4.6 nM

## CGGGAGGUUAGGGCUAGAAGUCGGUCCCG [191-D5-007 aptamer (D)]
[2]; somewhat better than 191-D5-001 in competition
  Kd: 2.2 nM

## CGGGAGGUUAGGGCUAGAAGUCGGUCCCG [191-D5-007 Spiegelmer]
[1]
  Kd: 0.8 nM

## GCUGUGAAAGCAACAUGUCAAUGAAAGGUAGCCGCAGC [192-A10-001 Spiegelmer]
[1]; 1 mM Mg, 1 mM Ca
  Kd: 1 nM

## AGCGUGGUGUGAUCUAGAUGUAUUGGCUGAUCCUAGUCAGGUACGCU [193-G2-001 Spiegelmer]
[1]
  Kd: 0.5 nM

## GCGUGGUGUGAUCUAGAUGUAUUGGCUGAUCCUAGUCAGGUACGC [193-G2-012 aptamer (D)]
[2]
  Kd: 0.3 nM

## GCUGUGAAAGCAACAUGUCAAUGAAAGGUAGCCGCAGC [192-A10-001 aptamer (D)]
[2]; 1 mM Mg, 1 mM Ca, pH 7.4
  Kd: 1.5 nM

## AGCGUGGUGUGAUCUAGAUGUAUUGGCUGAUCCUAGUCAGGUACGCU [193-G2-001 aptamer (D)]
[2]; better than 192-A10-001 in competition
  Kd: 0.3 nM
